From paper PMC11203576 (International Journal of Molecular Sciences, 2024)

Target: T1, SARS-CoV-2 spike protein RBD, original (wild-type), sfGFP fusion (SARS-CoV-2, UniProt P0DTC2)
T1 construct: also called original RBD; original SARS-CoV-2 RBD
Test: SPR; Biacore T200; […] (0.01 M HEPES, 0.15 M NaCl, 3 mM EDTA, 0.05% surfactant P20, […]
Settings: both partners purified

B1: Recombinant Microcystis viridis NIES-102 lectin (rMVL) (natural protein)
chain: MASYKVNIPAGPLWSNAEAQQVGPKIAAAHQGNFTGQWTTVVESAMSVVEVELQVENTGIHEFKTDVLAGPLWSNDEAQKLGPQIAASYGAEFTGQWRTIVEGVMSVIQIKYTF
notes: also called Microcystis viridis lectin
B1 was tested, and the Kd was 2.08 µM.
